This data set concerns TetR. Nature of the data set: SPR. Particulars: streptavidin surface, promoters at 30-50 RU, TetR 4-62 nM, regeneration with 1 M NaCl and 1 M MgCl2, running buffer, pH and temperature not given in the ….
In turn, “CGCGCGCCTTTCTGCGTTTATATACTAGAGTCCCTATCAGTGATAGAGATTGACATCCCTATCAGTGATAGATATAATGAGCACTACTAGAGTAGTGGAGGTTACTAGATGGTGAGCAAGGGCGAGGAGCTGTTCACCGGGGTGGTGCCCATCCTGCGCG (double strand) [L12 promoter]” returned a Kd of 8 nM. The figure for “CGCGCGCCTTTCTGCGTTTATATACTAGAGTCCCTATCAGTGATAGAGATTGACATCCCTATCAGTGATAGATATAATGCGCACTACTAGAGTAGTGGAGGTTACTAGATGGTGAGCAAGGGCGAGGAGCTGTTCACCGGGGTGGTGCCCATCCTGCGCG (double strand) [L09 promoter]” is 6 nM; for “CGCGCGCCTTTCTGCGTTTATATACTAGAGTCCCTATCAGTGATAGAGATTGACATCCCTATCAGTGATAGATATAATGGGCACTACTAGAGTAGTGGAGGTTACTAGATGGTGAGCAAGGGCGAGGAGCTGTTCACCGGGGTGGTGCCCATCCTGCGCG (double strand) [L11 promoter]” it is 6 nM; for “CGCGCGCCTTTCTGCGTTTATATACTAGAGTCCCTATCAGTGATAGAGATTGACATCCCTATCAGTGATAGATATAATGTGCACTACTAGAGTAGTGGAGGTTACTAGATGGTGAGCAAGGGCGAGGAGCTGTTCACCGGGGTGGTGCCCATCCTGCGCG (double strand) [L10 promoter]” it is 5 nM.

(Values after publication PMC4575469.)
